# ± gives the uncertainty stated by the source.
# Assay: protein stability index of a GFP-peptide fusion (yeast GPS) (PSI 1-4); higher = more stable; sorted into four equal gates, so the index is relative within each strain
# Outline: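 Sequencing reads from sorted gates were used to score each peptide. The library consisted of tiled 17-residue yeast protein peptides fused downstream of GFP on a Cherry-expressing plasmid, pooled and carried in yeast. Mid-log cultures in leucine-free medium were split into four equal gates by GFP/Cherry ratio, and each gate's plasmids were PCR-amplified and Illumina-sequenced. The protein stability index adds up, over all gates, the read frequency multiplied by the gate number.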
Sequence,protein stability index (doa10∆),protein stability index (pdr5∆),protein stability index (san1∆),protein stability index (ubr1∆)
LDPLEMEGNAQPVNFNR [RPO31],3.37 ± 0.09,3.29 ± 0.081,2.93 ± 0.1,2.97 ± 0.1
LPFYAILRSIPDKLLGV [COB],2.59 ± 0.041,2.07 ± 0.039,2.1 ± 0.055,1.99 ± 0.046
QARMMQQQSADHDDSTD [NSL1],2.76 ± 0.051,2.74 ± 0.058,2.62 ± 0.052,2.76 ± 0.039
PLAKKQTVRLIKDLQRA [SIR2],2.77 ± 0.08,3.01 ± 0.07,2.77 ± 0.057,2.97 ± 0.062
TKKLIQKTVFDELCKLV [SRP54],1.1 ± 0.11,1.51 ± 0.096,1.25 ± 0.18,1.11 ± 0.095
FIMVKGCIPGNRKRIVT [RPL3],1.39 ± 0.063,1.48 ± 0.08,1.57 ± 0.2,1.28 ± 0.06
KIYKLENGERKLYDAKR [YMR129W/POM152],3.13 ± 0.06,3.17 ± 0.077,3.21 ± 0.065,3.29 ± 0.06
FDRLVAGQIPTGWNAKT [FAS2],2.15 ± 0.18,–,–,–
RLLITGTPLQNNLHELW [ISW2],2.68 ± 0.066,2.61 ± 0.076,2.99 ± 0.062,2.83 ± 0.064
DQKIWPYLEKYPEYDQI [SSN3],3.5 ± 0.12,3.08 ± 0.09,3.11 ± 0.065,3.43 ± 0.1
YHGLYTNYEMSYWQKSY [LIN1],1.75 ± 0.046,2.08 ± 0.038,2.11 ± 0.055,2.17 ± 0.041
KPAFSFGATTNDDKKTE [YJL041W/NSP1],2.92 ± 0.099,3.07 ± 0.067,3.01 ± 0.058,2.89 ± 0.045
DADTEDPHSASLINSHL [RPC82],2.9 ± 0.084,3.27 ± 0.085,2.97 ± 0.078,3 ± 0.13
APSVPEFIYLTKVLQFA [SNF2],2.82 ± 0.1,2.5 ± 0.087,1.78 ± 0.12,2.91 ± 0.087
IKIVYALTTIKGVGRRY [RPS18A],1.87 ± 0.12,1.95 ± 0.078,2.06 ± 0.17,1.61 ± 0.075
PSYYYYVDPETTYTYQQ [ROX3],2.93 ± 0.075,3.09 ± 0.079,2.85 ± 0.053,3.16 ± 0.07
RDVSDDVFDTLATYCPR [GRR1],3.02 ± 0.084,3.04 ± 0.071,3.05 ± 0.056,3.22 ± 0.06
KTGTKPAAVFTETLKHD [RPL4A],2.24 ± 0.077,2.19 ± 0.17,1.74 ± 0.15,2.54 ± 0.11
PAITIEKLKQFSWISVV [SIR3],1.16 ± 0.05,1.45 ± 0.055,1.24 ± 0.094,1.13 ± 0.035
KDGSNPRTLIGHRATVT [RPN14],–,3.31 ± 0.26,3.07 ± 0.14,–
KTPLLKQYLSASFSLKN [RPL6A],2.01 ± 0.051,1.98 ± 0.054,2.25 ± 0.059,2.27 ± 0.042
AELIGLQPIFKGEEAKL [SSN3],2.54 ± 0.18,1.57 ± 0.16,–,1.33 ± 0.2
RLECVKCKTRAQLTLKR [RPL42A],2.8 ± 0.096,2.46 ± 0.085,2.52 ± 0.14,2.54 ± 0.056
HIILDTISECNLYDDVK [MED1],2.49 ± 0.073,3.18 ± 0.087,3.19 ± 0.067,3 ± 0.11
QSQQAQPSDVMFNDLNS [MED2],3.1 ± 0.057,3.37 ± 0.078,3.44 ± 0.063,3.11 ± 0.095
KSNRSYSIALSNVAAIF [GAL11],1.76 ± 0.08,1.67 ± 0.097,1.4 ± 0.27,1.43 ± 0.064

Sequence,protein stability index (doa10∆),protein stability index (pdr5∆),protein stability index (san1∆),protein stability index (ubr1∆)
KDVAKPTGPKTAIDKNG [FAS2],3.31 ± 0.18,3.04 ± 0.11,3.06 ± 0.074,3.19 ± 0.1
QQQQIQVPLQQTQAIAQ [YGR119C/NUP57],2.61 ± 0.061,2.82 ± 0.048,2.88 ± 0.039,2.885 ± 0.028
KTAKEVAGAIRAGIIIA [RPS2],2.49 ± 0.14,3.16 ± 0.17,2.69 ± 0.24,3.07 ± 0.1
YGQRAVLKFAAHTGATP [RPS0B],2.27 ± 0.055,2.88 ± 0.039,2.66 ± 0.046,2.66 ± 0.041
LLAEYDNIYRNLQKIDK [MED4],2.4 ± 0.048,2.69 ± 0.042,2.61 ± 0.05,2.32 ± 0.028
LAANYLNIKPLLDAGCK [SKP1],1.83 ± 0.076,2.19 ± 0.081,1.57 ± 0.12,2.23 ± 0.09
DDSRNPDCKIKIAHGTT [PRE2],2.63 ± 0.086,2.77 ± 0.067,2.72 ± 0.076,2.84 ± 0.078
SKEKANFLETIASTEKP [SIR4],2.26 ± 0.069,2.28 ± 0.055,2.04 ± 0.1,2.64 ± 0.058
SIYDKWTDPNLKSSLAD [RPN1],2.99 ± 0.1,2.96 ± 0.067,2.88 ± 0.062,3.19 ± 0.054
TDLNQDSAAIIAATGLN [GRR1],1.62 ± 0.17,1.32 ± 0.1,1.43 ± 0.22,1.55 ± 0.097
VTPNDKIPEREEKSNEV [SIR4],–,3.16 ± 0.24,3.42 ± 0.21,–
LEDELYHTNPGHSQFTS [RPN4],3.34 ± 0.11,3.15 ± 0.09,3.05 ± 0.082,3.21 ± 0.071
TSNDASNKKETKKKRKP [ITC1],3.08 ± 0.089,3.25 ± 0.075,3.21 ± 0.088,3.29 ± 0.074
SLLESGSEILGDLKLQV [RPO21],3.59 ± 0.27,3.58 ± 0.14,2.53 ± 0.21,3.02 ± 0.18
QIAFDLVSSASQQLLEI [RPN2],2.22 ± 0.068,2.17 ± 0.063,1.66 ± 0.11,1.69 ± 0.072
TVNGQARDLATMTYEEV [FAS1],2.96 ± 0.08,3.15 ± 0.056,3.03 ± 0.065,2.95 ± 0.045
DYYYEDAGSNQYYVTQH [SWI1],3.15 ± 0.1,3.34 ± 0.082,3.09 ± 0.14,3.22 ± 0.095
QVGDGLEILIVTKDGVR [PRE7],2.64 ± 0.054,2.6 ± 0.049,2.92 ± 0.053,2.76 ± 0.052
QFQKARNNVMLLIATNL [SRB8],1.74 ± 0.11,1.81 ± 0.1,2.24 ± 0.13,1.93 ± 0.071
PFIKSESKPFSSDALSK [SIR4],3.17 ± 0.07,3.15 ± 0.09,3.2 ± 0.046,3.13 ± 0.061
GSVFNMNGNTNANTVFA [YOR098C/NUP1],2.29 ± 0.095,3 ± 0.12,3.01 ± 0.17,2.44 ± 0.066
DTNAPVAATITSSQKEP [SRB8],2.35 ± 0.14,2.79 ± 0.13,3.04 ± 0.086,2.96 ± 0.11
ASYVNIPVIALTDLDSP [RPS0A],1.92 ± 0.063,1.81 ± 0.064,1.61 ± 0.17,1.88 ± 0.046
QLDAYGEKKVGSNGELF [SWP82],3.28 ± 0.13,3.29 ± 0.089,3.62 ± 0.071,3.32 ± 0.12
LPHSPLWELALAFIPNI [YML031W/NDC1],1.36 ± 0.084,1.25 ± 0.044,1.24 ± 0.092,1.08 ± 0.05
HPAYLFKGLETPLKARQ [YLR018C/POM34],2.16 ± 0.073,2.26 ± 0.057,1.36 ± 0.077,2.08 ± 0.043

# Reference: the supplement of paper PMC9732359
